# Assay results reported in paper PMC3656124, “DNA Topoisomerase II Is Involved in Regulation of Cyst Wall Protein Genes and Differentiation in Giardia lamblia” (PLoS Neglected Tropical Diseases, 2013).
# T1: Topo IIC (Giardia lamblia, UniProt E2RU90 489-1491)
# T1 sequence: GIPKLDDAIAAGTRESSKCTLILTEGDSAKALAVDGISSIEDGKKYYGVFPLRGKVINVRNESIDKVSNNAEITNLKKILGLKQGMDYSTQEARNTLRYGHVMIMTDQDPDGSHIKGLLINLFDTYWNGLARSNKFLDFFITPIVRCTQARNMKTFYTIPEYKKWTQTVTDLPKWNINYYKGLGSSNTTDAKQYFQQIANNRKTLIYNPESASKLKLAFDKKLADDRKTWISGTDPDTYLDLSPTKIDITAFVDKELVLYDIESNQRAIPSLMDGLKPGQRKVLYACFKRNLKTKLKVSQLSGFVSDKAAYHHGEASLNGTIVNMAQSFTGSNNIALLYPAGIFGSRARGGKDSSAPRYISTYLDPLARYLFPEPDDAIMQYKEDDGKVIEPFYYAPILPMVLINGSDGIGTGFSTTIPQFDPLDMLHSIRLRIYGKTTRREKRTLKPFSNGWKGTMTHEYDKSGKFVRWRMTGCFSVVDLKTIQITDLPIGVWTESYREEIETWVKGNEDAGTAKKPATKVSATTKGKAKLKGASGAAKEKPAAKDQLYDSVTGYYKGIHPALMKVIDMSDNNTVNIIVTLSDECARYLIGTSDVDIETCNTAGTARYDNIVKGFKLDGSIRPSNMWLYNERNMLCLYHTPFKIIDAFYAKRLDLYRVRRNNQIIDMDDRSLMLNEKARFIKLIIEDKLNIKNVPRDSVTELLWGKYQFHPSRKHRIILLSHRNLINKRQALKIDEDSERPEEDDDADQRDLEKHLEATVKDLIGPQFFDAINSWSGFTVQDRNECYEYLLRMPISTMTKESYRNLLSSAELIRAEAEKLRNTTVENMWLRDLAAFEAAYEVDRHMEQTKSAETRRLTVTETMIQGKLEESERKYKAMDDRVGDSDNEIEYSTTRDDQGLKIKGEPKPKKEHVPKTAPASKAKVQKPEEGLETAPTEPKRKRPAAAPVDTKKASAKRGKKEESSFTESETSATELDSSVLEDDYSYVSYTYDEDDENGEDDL
# T2: Myb2 (Giardia lamblia, UniProt Q8ISM2 1-530)
# T2 sequence: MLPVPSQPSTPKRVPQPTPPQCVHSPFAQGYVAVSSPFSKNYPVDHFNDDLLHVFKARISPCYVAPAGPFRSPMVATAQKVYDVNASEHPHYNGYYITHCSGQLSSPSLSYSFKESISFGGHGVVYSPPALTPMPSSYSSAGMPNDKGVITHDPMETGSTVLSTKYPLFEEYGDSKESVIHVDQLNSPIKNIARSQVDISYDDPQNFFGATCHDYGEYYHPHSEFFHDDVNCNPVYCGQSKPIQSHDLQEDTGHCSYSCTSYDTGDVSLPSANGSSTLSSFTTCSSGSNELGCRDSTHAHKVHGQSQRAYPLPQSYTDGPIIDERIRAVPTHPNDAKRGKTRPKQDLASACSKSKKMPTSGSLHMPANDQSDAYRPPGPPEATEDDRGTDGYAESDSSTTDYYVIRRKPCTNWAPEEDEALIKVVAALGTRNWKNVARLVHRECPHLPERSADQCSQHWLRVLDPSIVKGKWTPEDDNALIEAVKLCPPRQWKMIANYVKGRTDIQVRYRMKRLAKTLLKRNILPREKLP
# B1: poly(A) with TT insertion (dsDNA)
# DNA 1: AAAAAAAAAAATTAAAAAAAAAA
# DNA 2: TTTTTTTTTTAATTTTTTTTTTT
# B2: 18S-60/-31 (dsDNA)
# DNA 1: CCGTGCCAGGCGGCGGCCCCCGCGCAGGGA
# DNA 2: TCCCTGCGCGGGGGCCGCCGCCTGGCACGG
# B3: cwp3-30/+10 (dsDNA)
# DNA 1: GTCTTTCCCAAAAAATAAGTTACTACTGATATGTTTTCTC
# DNA 2: GAGAAAACATATCAGTAGTAACTTATTTTTTGGGAAAGAC
# B4: ran-51/-20 (dsDNA)
# DNA 1: TAAAATAAATTAAATCGAAATTAAAACTTTAA
# DNA 2: TTAAAGTTTTAATTTCGATTTAATTTATTTTA
# B5: Topo II (Giardia lamblia ATCC 50803) (protein)
# chain: MAQKAKIQRVTGSEHVLLRPDMYVGSVSAAETFLWLYEPGQGLYYTKANIVPGLCKIFDEIIVNASDNKQRDSDRSAEHKMTYIKCSVDVASGAISVENDGVEGLLHFDEKEKMYLPTLAFGILMTSSNYDDTEQRVTGGRNGYGAKLTNIFSTKFTVLLQENGQVFEQTWTDNMKNTKPPRIEDVRDKKKNFIRFSFTPDYMKFGMTSGLDRDHAAYMMRRAVDVAGCNIGLKLIINGTELKIANFEQYARMVYRSINPEITQFYETSKGDTAQVNTNDSDSDLDIKSAAKAKPKTKRTKKTIETNSLLIPVDDLSKPSDWTHDYLKVIPVNKFWDIGLGYTDSGELVQVSFVNSINTTDGGTHVDAILDLIMSQLNDVLIKSFQQDAKNAKKLTRQQLKSCLVLFIRSLVVNPSFDSQTKISLKTDKAALLRSLGSTQAELATLATQLVKRIQEIRPLWNSLRQASYNQAAKLLTKTDGSKTSQLLGIPKLDDAIAAGTRESSKCTLILTEGDSAKALAVDGISSIEDGKKYYGVFPLRGKVINVRNESIDKVSNNAEITNLKKILGLKQGMDYSTQEARNTLRYGHVMIMTDQDPDGSHIKGLLINLFDTYWNGLARSNKFLDFFITPIVRCTQARNMKTFYTIPEYKKWTQTVTDLPKWNINYYKGLGSSNTTDAKQYFQQIANNRKTLIYNPESASKLKLAFDKKLADDRKTWISGTDPDTYLDLSPTKIDITAFVDKELVLYDIESNQRAIPSLMDGLKPGQRKVLYACFKRNLKTKLKVSQLSGFVSDKAAYHHGEASLNGTIVNMAQSFTGSNNIALLYPAGIFGSRARGGKDSSAPRYISTYLDPLARYLFPEPDDAIMQYKEDDGKVIEPFYYAPILPMVLINGSDGIGTGFSTTIPQFDPLDMLHSIRLRIYGKTTRREKRTLKPFSNGWKGTMTHEYDKSGKFVRWRMTGCFSVVDLKTIQITDLPIGVWTESYREEIETWVKGNEDAGTAKKPATKVSATTKGKAKLKGASGAAKEKPAAKDQLYDSVTGYYKGIHPALMKVIDMSDNNTVNIIVTLSDECARYLIGTSDVDIETCNTAGTARYDNIVKGFKLDGSIRPSNMWLYNERNMLCLYHTPFKIIDAFYAKRLDLYRVRRNNQIIDMDDRSLMLNEKARFIKLIIEDKLNIKNVPRDSVTELLWGKYQFHPSRKHRIILLSHRNLINKRQALKIDEDSERPEEDDDADQRDLEKHLEATVKDLIGPQFFDAINSWSGFTVQDRNECYEYLLRMPISTMTKESYRNLLSSAELIRAEAEKLRNTTVENMWLRDLAAFEAAYEVDRHMEQTKSAETRRLTVTETMIQGKLEESERKYKAMDDRVGDSDNEIEYSTTRDDQGLKIKGEPKPKKEHVPKTAPASKAKVQKPEEGLETAPTEPKRKRPAAAPVDTKKASAKRGKKEESSFTESETSATELDSSVLEDDYSYVSYTYDEDDENGEDDL
# B6: poly(A) with TC insertion (dsDNA)
# DNA 1: AAAAAAAAAAATCAAAAAAAAAA
# DNA 2: TTTTTTTTTTGATTTTTTTTTTT
# B7: cwp1-90/-46 (dsDNA)
# DNA 1: CTGGCTAACAGTCTACAGTCTACAATTTACAGTATACAATCTACA
# DNA 2: TGTAGATTGTATACTGTAAATTGTAGACTGTAGACTGTTAGCCAG
# B8: cwp1-45/-1 (dsDNA)
# DNA 1: GTTTACAACTCTCAGATCAAGAAACACAGAAATAAAATATCAGGG
# DNA 2: CCCTGATATTTTATTTCTGTGTTTCTTGATCTGAGAGTTGTAAAC
# B9: 18S-30/-1 (dsDNA)
# DNA 1: GGCGCCCGGCCCGCGGCGCCCGCGCCCGGC
# DNA 2: GCCGGGCGCGGGCGCCGCGGGCCGGGCGCC
# B10: poly(A) (dsDNA)
# DNA 1: AAAAAAAAAAAAAAAAAAAAAAA
# DNA 2: TTTTTTTTTTTTTTTTTTTTTTT
# B11: cwp2-30/+8 (dsDNA)
# DNA 1: CAGCAGCTCAACAGTGGCTGGGAAAATAAAATGATCGC
# DNA 2: GCGATCATTTTATTTTCCCAGCCACTGTTGAGCTGCTG
# B12: topo II-85/-40 (dsDNA)
# DNA 1: TGTAAATCAATATTATCGTCCTACAGCTGCTAGCTTGGTGACAGGA
# DNA 2: TCCTGTCACCAAGCTAGCAGCTGTAGGACGATAATATTGATTTACA
# Tests used:
# Topo IIC [1] = molecular target: T1, Topo IIC; assay: competition; 200-fold excess vs labeled IIBS; EMSA: 0.02 pmol 5'-labeled probe, 5 ng protein, 20 ul, 0.5 ug poly(dI-dC), 15 min, room temperature, 6% acrylamide gel; buffer, salt and pH only by citation; settings: protein: recombinant; tags: C-terminal V5-His; chain copies: 2
# Topo IIC [2] = molecular target: T1, Topo IIC; assay: EMSA; EMSA: 0.02 pmol 5'-labeled probe, 5 ng protein, 20 ul, 0.5 ug poly(dI-dC), 15 min, room temperature, 6% acrylamide gel; buffer, salt and pH only by citation; settings: protein: recombinant; tags: C-terminal V5-His; chain copies: 2
# [3] = substrate: Nc1ncnc2c1ncn2[C@@H]1O[C@H](COP(=O)(O)OP(=O)(O)OP(=O)(O)O)[C@@H](O)[C@H]1O; assay: coupled pyruvate kinase/lactate dehydrogenase ATPase assay (NADH, A340), Lineweaver-Burk; assay type: biochemical, Giardia duodenalis; settings: without DNA, 37 °C, 8 ng Topo II
# Myb2 = molecular target: T2, Myb2; assay: EMSA; EMSA: 0.02 pmol 5'-labeled probe, 5 ng protein, 20 ul, 0.5 ug poly(dI-dC), 15 min, room temperature, 6% acrylamide gel; buffer, salt and pH only by citation; settings: protein: recombinant
binder,measurement,setting,value
B1,binding result,Topo IIC [1],binds
B2,binding result,Topo IIC [2],no binding
B3,binding result,Topo IIC [1],binds
B4,binding result,Topo IIC [1],binds
B5,Km,[3],210 µM
B6,binding result,Topo IIC [1],binds
B7,binding result,Myb2; label: 5'-32P for Myb2,binds
B8,binding result,Topo IIC [2],binds
B9,binding result,Topo IIC [2],no binding
B10,binding result,Topo IIC [1],binds
B11,binding result,Topo IIC [1],binds
B12,binding result,Myb2; label: 5'-32P,binds
